Measurements as given in PMC13381548.

System: NX4-NS20-NX1 (X-NS20-X) (designed (from TALE PthXo1))
Assay: BLI
Settings: BLI: 25 mM Tris (pH 7 for NS20, pH 8 for NS14), 150 mM NaCl, 10 mM MgCl2, 0.5% BSA, 0.5% Tween-20, 25 C, EMSA: 1% agarose, 1x TAE, 110 V

| Sequence | Kd (10 mM MgCl2, stated weak interactions, Kd > ~700 nM) [µM] | Kd [µM] |
| --- | --- | --- |
| AAAAAAATCAGACCGACATCTAATCCGCAACGA (double strand) [X-NS20-X random] | > 0.7 | – |
| AAAAAAATCTAGCAACCTCAAACAGACACCAGA (double strand) [X-NS20-X target] | – | 0.045 |
